From PMC4714757, “Leishmania infantum Asparagine Synthetase A Is Dispensable for Parasites Survival and Infectivity” (PLoS Neglected Tropical Diseases, 2016)

Assays:
[1] = target: Leishmania infantum asparagine synthetase A, recombinant, poly-His-tagged (Leishmania infantum); assay: SEC; analytic size exclusion chromatography of purified recombinant LiAS-A on Superose 12 10/300GL, calibrated with standards (Kav against Log MW and Log Stokes radius); oligomeric state of the native protein
[2] = substrate: Nc1ncnc2c1ncn2[C@@H]1O[C@H](COP(=O)(O)OP(=O)(O)OP(=O)(O)O)[C@@H](O)[C@H]1O; assay: colorimetric assay of Asn formation, steady state; assay type: biochemical, Leishmania infantum; details: other substrates in excess, 8.4 mM Mg2+, 85 mM Tris.HCl pH 7.6, 37°C
Source text: (§1) colorimetric assay of Asn formation, steady state on LiAS-A (Leishmania infantum asparagine synthetase A)

[3] = substrate: NC(=O)CC[C@H](N)C(=O)O; assay: colorimetric assay of Asn formation, steady state; assay type: biochemical, Leishmania infantum; details: glutamine as nitrogen donor, other substrates in excess, 8.4 mM Mg2+, 85 mM Tris.HCl pH 7.6, 37°C
Source text: as §1

[4] = substrate: N[C@@H](CC(=O)O)C(=O)O; assay: colorimetric assay of Asn formation, steady state; assay type: biochemical, Leishmania infantum; details: other substrates in excess, 8.4 mM Mg2+, 85 mM Tris.HCl pH 7.6, 37°C
Source text: as §1

Row | stoichiometry N [1] | Molecule | Km [2] | kcat [2] | Km [3] | kcat [3] | Km [4] | kcat [4]
1 | 2 | Leishmania infantum asparagine synthetase A, recombinant, poly-His-tagged (enzyme) |  |  |  |  |  | 
2 |  | LiAS-A (Leishmania infantum asparagine synthetase A) (Leishmania infantum) (protein, full length, 353 residues, N-terminal 6xHis tag (pET28a) with no cleavage stated, E. coli BL21(DE3)) MSSSPQEYIDLQTRILRVKTIFAEELASALNLIQVECPMLACVGDGTQDNLSGVEKAVQVHVKEIPGANYEVVHSLAKWKRMTLGNHRFPVGRGIFTNMRALRVEETLDNIHSVYVDQWDWERVIAPADRCLEYLQATVRSLYEVLRETESRLCTEFPDIAPILPDSIKFVHTEQLLKRYPELDPKSREREAVKKLGAVFLIGIGCKLSHGDHHDVRAPDYDDWSSPVSVDSSKIGFPTADDEKPSVNTIMSLQGLNGDILVYNPVLDDVLELSSMGIRVDQEALRRQLEITGTSDRLQCRWHQCVLNGDLPQTIGGGIGQSRTVMFMLRKRHIGEVQCSVWPHEVTAQYSLL | 1470 ± 40 µM | 4.18 ± 0.02 s⁻¹ | 1710 ± 280 µM | 4.51 ± 0.19 s⁻¹ | 6210 ± 1150 µM | 9.19 ± 0.69 s⁻¹
